# Results taken from US20200040103A1.
# Substitutions are numbered along the chain they refer to.
# B1: hu9H5.L4H14 (antibody, V domains shown)
# VH: EVQLVESGGGLIQPGGSLRLSCAASGFSLSSYGVSWVRQAPGKGLEYVGFIGSGGFAYYASWAKSRFTISRDNSKNTLYLQMNSLRAEDTAVYYCARDDVGGGKSLDIWGQGTLVTVSS
# VL: DIQMTQSPSSLSASVGDRVTITCQASQSISSYLSWYQQKPGKAPKLLIYSASTLASGVPSRFSGSGSGTDFTLTISSLQPEDFATYYCHQDYTSSNVDNTFGGGTKVEIK
# B2: 10C5 (antibody, V domains shown)
# VH: QSLEESGGGLVKPTDTLTLTCTVSGFSLSSYGVTWVRQAPGRGLEWIGYITSNYGVSYYASWAKSRSTITRNTNLNTVTLKMTSLTAADTATYFCARENPDYGYAYDAWGPGTLVTVSV
# VL: AYDMTQTPASLEAAVGGTVTINCQASESISNELSWYQQKPGQPPDLLIYYASTLASGVPSRFKGSGSGTEFTLTISDLECADAATYYCAQGFGSSGVENVFGGGTEVVVK
# B3: hu10C5.L5H28 (antibody, V domains shown)
# VH: EVQLVESGGGLVQPGGSLRLSCAASGFSLSSYGVTWVRQAPGKGLEWIGYITSNYGVSYYASWAKSRSTISRDTSKNTVYLQMGSLRAEDMAVYYCARENPDYGYAYDAWGQGTTVTVSS
# VL: AIRMTQSPSSFSASTGDRVTITCQASESISNELSWYQQKPGKAPKLLIYYASTLASGVPSRFSGSGSGTDFTLTISSLQPEDFATYYCAQGFGSSGVENVFGGGTKVEIK
# B4: hu3-3F5.L5H19 (antibody, V domains shown)
# VH: EVQLLESGGGLVQPGGSLRLSCAVSGFSLNDYGVSWVRQAPGKGLEWVGAIGSSGVAWYANFAKGRFTISRDNSKNTLYLQMNSLRAEDTAVYYCARDRDYGYRADDATSGMDLWGRGTLVTVSS
# VL: AIRMTQSPSSFSASTGDRVTITCQASESIGNALAWYQQKPGKAPKLLIYDASDLASGVPSRFSGSGSGTDFTLTISSLQPEDFATYYCQQGDSHNNVDNIFGGGTKVEIK
# B5: hu3-3F5.L5H25 (antibody, human IgG1, V domains shown)
# VH: B4 VH with V24A, N73T, L78V
# VL: B4 VL
# B6: 9H3 (antibody, V domains shown)
# VH: QSVKESEGGLFKPTDTLTLTCTVSGFSLSGYGVSWVRQAPGKGLEYIGFIGSGGSAYYASWAKSRSTITRNTNLNTVTLKMTRLTAADTATYFCARDNVGGDMSLDIWGPGTLVTVSS
# VL: DIVMTQTPASVSEPVGGTVTIKCQASQNINNYLSWYQQKPGQPPKQLIYAASTLASGVPSRFKGSGSGTQFTLTISDLECADAATYYCHQDYTSNNVDNTFGGGTEVVVK
# B7: 9B6 (antibody, V domains shown)
# VH: B6 VH with T16N, G30N, S34T, K42N, R83S, N98D, D102G, M103K
# VL: NIVMTQTPASVEVAVGGTVVIKCQASQNIGDYLSWYQQKPGQRPKLLIYSASTLASGVPSRFKGSGSGTQFTLTISDLECADAATYYCHQDYTSNDVENTFGGGTEVVVK
# B8: 2B11 (antibody, V domains shown)
# VH: QSVKESEGGLFKPTDTLTLTCTVSGFSLINYGVSWVRQAPGKGLEWIGYIGSAGSTYYATWAKSRATITRNTNLNTVTLKMTSLTAADTATYFCARAAYSAGSADAEDIWGPGTLVTVSS
# VL: AYYMTQTPASVEAAVGGTVTIKCQASQSISNYVAWYQQKPGQPPKLLIYRASTLASGVSSRFSGSGSGTEFTLTISDLECADAATYYCHQGYSSSNVDNIFGGGTEVVVK
# B9: 8F5 (antibody, V domains shown)
# VH: QSVKESEGGLFKPTDTLTLTCTVSGFSLSSYPISWVRQAPGNGLEWIGYITSEYGVAYYATWAESRSTITRNTNLNTVTLKMTSLTAADTATYFCVRENPTYGYAYDAWGPGTLVTVSS
# VL: B2 VL with M4L, L11V, S30G, P40S, D45K, Y50Q, E70D, G93S
# B10: 2-3F4 (antibody, V domains shown)
# VH: QSVEESRGGLIKPTDTLTLTCTASGFSLSNYGVSWVRQAPGNGLEYIGFIGYGGSTYYASWAKSRSTITRNTNLNTVTLQMTSLTAADTATYFCARLCGVDCADALDSWGPGTLVTVSS
# VL: AYYMTQTPASVEVAVGGTVTIKCQASEDIGSYCSWYQQKPGQPPKLLIYDASDLASGVPSRFKGSGSGTDFTLTISGVQCDDAATYYCQQDYTGNNVDNTFGGGSEVVVK
# B11: 8G10 (antibody, V domains shown)
# VH: QSLEESGGDLVKPEGSLTLTCTASGFSFSTSYWICWVRQAPGKGLEWIACVYGLDVNIYYASWTEGRFTISKTSSTTVTLQVTSLTAADTATYFCARGGGSADFGFDLWGPGTLVTVSS
# VL: DVVMTQTPASVSEPVGGTVTIKCQASENIYSLLAWYQQKPGQPPKVLIYDASDLASGVPSRFKGSGSGTQFTLTISDLECADAATYYCQATAYGSSGNAFGGGTEVVVK
# Biological target: recombinant human KLK5 (human) (UniProt Q9Y337)
# Assay: SPR BIAcore T200, antibody captured by anti-human Fc, human KLK5 as analyte, 37 C
# Chain of recombinant human KLK5 (human) (Q9Y337 67-293): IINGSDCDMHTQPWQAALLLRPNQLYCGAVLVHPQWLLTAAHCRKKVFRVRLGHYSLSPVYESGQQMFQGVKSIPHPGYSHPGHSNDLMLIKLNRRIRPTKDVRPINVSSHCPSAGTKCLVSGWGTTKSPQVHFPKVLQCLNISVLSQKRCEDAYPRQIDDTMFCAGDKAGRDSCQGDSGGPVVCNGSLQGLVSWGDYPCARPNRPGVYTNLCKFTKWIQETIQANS
Kd [nM],koff [s⁻¹],kon [M⁻¹ s⁻¹],Binder
0.694,0.000562,810000,B1
0.0165,0.000292,1.78e+07,B2
0.057,0.00108,1.9e+07,B3
0.00414,0.000201,4.84e+07,B4
0.00914,0.000235,2.57e+07,B5

# Biological target: recombinant human KLK5 (human) (UniProt Q9Y337)
# Assay: Kiapp assay curve, 0.125 nM KLK5, Z-VPR-pNA
row,IC50 (read off the curve) [nM],Binder
1,0.07,B6
2,0.1,B7

# Biological target: recombinant human KLK5 (human) (UniProt Q9Y337)
# Assay: KLK5 direct activity assay, 5 nM KLK5, Boc-VPR-AMC
row,IC50 (read off the curve) [nM],Binder
1,1 to 2,B8
2,1,B9
3,1,B2
4,1,B10
5,0.9,B6
6,1 to 2,B7

# Biological target: recombinant human KLK5 (human) (UniProt Q9Y337)
# Assay: pro-KLK7 coupled assay, 5 nM KLK5
row,IC50 [nM],Binder
1,0.86,B8
2,0.76,B9
3,0.58,B2
4,1.1,B10
5,1.05,B6
6,0.95,B7

# Biological target: recombinant human KLK5 (human) (UniProt Q9Y337)
# Assay: pro-KLK7 LC/MS assay, 5 nM KLK5
row,IC50 [nM],Binder
1,1.72,B8
2,1.31,B9
3,0.31,B2
4,0.38,B10
5,1.05,B6
6,1.42,B7

# Biological target: recombinant human KLK5 (human) (UniProt Q9Y337)
# Assay: Kiapp, KLK5 0.5-0.0625 nM, Z-VPR-pNA
row,Ki [nM],Binder
1,6.35,B8
2,1.91,B9
3,0.15,B2
4,1.14,B10
5,0.07,B6
6,0.185,B7

# Biological target: recombinant human KLK5 (human) (UniProt Q9Y337)
# Assay: pro-KLK1 coupled assay, 0.5 nM KLK5, 31.25 nM pro-KLK1, PFR-AMC
row,IC50 (read off the curve) [nM],Binder
1,0.2,B8
2,0.1 to 0.2,B9
3,0.1,B2
4,0.1,B10
5,0.1,B6

# Biological target: recombinant human KLK5 (human) (UniProt Q9Y337)
# Assay: pro-KLK7 LC/MS assay, 5 nM KLK5, 15 nM pro-KLK7, nM
row,IC50 [nM],Binder
1,1.72,B8
2,1.31,B9
3,0.311,B2
4,0.384,B10
5,1.05,B6
6,1.42,B7

# Biological target: recombinant human KLK5 (human) (UniProt Q9Y337)
# Assay: pro-KLK1 LC/MS assay, 0.5 nM KLK5
row,IC50 [nM],Binder
1,0.48,B8
2,0.16,B9
3,0.08,B2
4,0.09,B10
5,0.09,B6
6,0.12,B7

# Biological target: recombinant human KLK5 (human) (UniProt Q9Y337)
# Assay: pro-KLK1 LC/MS assay, 0.5 nM KLK5, 300 nM pro-KLK1; box column 1 of 3; no unit printed, nM per text
row,IC50 [nM],Binder
1,0.369,B8
2,0.069,B9
3,0.0399,B2
4,0.054,B10
5,0.0728,B6
6,0.0659,B7

# Biological target: recombinant human KLK5 (human) (UniProt Q9Y337)
# Assay: Kiapp assay curve, 0.500 nM KLK5, Z-VPR-pNA
row,IC50 (read off the curve) [nM],Binder
1,0.2,B6
2,0.2,B7

# Biological target: recombinant human KLK5 (human) (UniProt Q9Y337)
# Assay: pro-KLK1 LC/MS assay, 0.5 nM KLK5, 300 nM pro-KLK1; box column 3 of 3; no unit printed, nM per text
row,IC50 [nM],Binder
1,0.241,B9
2,0.0795,B2
3,0.0279,B10
4,0.104,B6
5,0.0879,B7

# Biological target: recombinant human KLK5 (human) (UniProt Q9Y337)
# Assay: array SPR imaging (IBIS MX96), antibody amine-coupled, human KLK5 injected 0-300 nM, 25 C
row,koff [s⁻¹],Binder
1,0.000574,B8
2,0.000316,B9
3,0.000126,B2
4,0.000245,B11
5,0.000184,B10
6,0.000143,B6
7,0.000178,B7

# Biological target: recombinant human KLK5 (human) (UniProt Q9Y337)
# Assay: Kiapp as the y-intercept of the line of IC50 (nM) versus KLK5 (nM), Z-VPR-pNA
row,Ki [nM],Binder
1,6.36,B8
2,1.85,B9
3,0.0412,B2
4,0.939,B10
5,0.0697,B6
6,0.165,B7

# Biological target: recombinant human KLK5 (human) (UniProt Q9Y337)
# Assay: pro-KLK7 coupled assay, 5 nM KLK5, 125 nM pro-KLK7, suc-LLVY-AMC
row,IC50 (read off the curve) [nM],Binder
1,0.8,B9
2,1,B10
3,1,B6
4,1,B7

# Biological target: recombinant human KLK5 (human) (UniProt Q9Y337)
# Assay: direct activity assay, 5 nM KLK5, Boc-VPR-AMC
row,IC50 [nM],Binder
1,1.29,B8
2,1.15,B9
3,0.98,B2
4,1.02,B10
5,1.08,B6
6,1.17,B7

# Biological target: recombinant human KLK5 (human) (UniProt Q9Y337)
# Assay: pro-KLK1 coupled assay, 0.5 nM KLK5
row,IC50 [nM],Binder
1,0.17,B8
2,0.149,B9
3,0.111,B2
4,0.129,B10
5,0.12,B6
6,0.074,B7

# Biological target: recombinant human KLK5 (human) (UniProt Q9Y337)
# Assay: Kiapp assay curve, 0.063 nM KLK5, Z-VPR-pNA
row,IC50 (read off the curve) [nM],Binder
1,0.05,B6
2,0.1,B7

# Biological target: recombinant human KLK5 (human) (UniProt Q9Y337)
# Assay: Kiapp assay curve, 0.250 nM KLK5, Z-VPR-pNA
row,IC50 (read off the curve) [nM],Binder
1,0.1,B6
2,0.1,B7

# Biological target: recombinant human KLK5 (human) (UniProt Q9Y337)
# Assay: pro-KLK1 LC/MS assay, 0.5 nM KLK5, 300 nM pro-KLK1; box column 2 of 3; no unit printed, nM per text
row,IC50 [nM],Binder
1,0.584,B8
2,0.16,B9
3,0.123,B2
4,0.173,B10
5,0.0802,B6
6,0.202,B7
